Measurements as given in patent publication US20260055150.

Experiments:
[1] = biological target: mutant p53 (bacterially purified, commercial), P04637
[2] = biological target: wild type p53 (bacterially purified, commercial), P04637

B1: GRAIL C-terminal fragment (amino acids 229-428), recombinant (protein)
chain: YSARRLRNARAQSRKQRQLKADAKKAIGRLQLRTLKQGDKEIGPDGDSCAVCIELYKPNDLVRILTCNHIFHKTCVDPWLLEHRTCPMCKCDILKALGIEVDVEDGSVSLQVPVSNEISNSASSHEEDNRSETASSGYASVQGTDEPPLEEHVQSTNESLQLVNHEANSVAVDVIPHVDNPTFEEDETPNQETAVREIKS
B1 was tested, and the “in vitro ubiquitination assay (UBE1, UBCH5, Myc-tagged ubiquitin), immunoblot” value [1] was “a C-terminal RF containing GRAIL fragment is efficient in polyubiquitinating mutant p53 as compared to wild type protein” and the “in vitro ubiquitination assay (UBE1, UBCH5, Myc-tagged ubiquitin), immunoblot” value [2] was “a C-terminal RF containing GRAIL fragment is efficient in polyubiquitinating mutant p53 as compared to wild type protein”.
